According to patent US20020187934A1:

Biological target: purified HLA-DR4Dw4 (human)
Assay: Test A: competition with biotin-FHA307-320 for purified HLA-DR4Dw4, ELISA read-out

Q: For “Phv-Arg-Ala-IIb-Thr-Ala-Ala-Ala-Papa-NH2 (SEQ ID NO:1) (peptide)”, which concentration showing significant binding is on record?
A: < 0.1 µM
